# Laboratory results taken from US20230126400A1 (Alector, published 2023).
# Positions count from the first letter of the chain named.
# T1: human MS4A6A ECL1 peptide (amino acid residues 68-85) (human)
# T1 peptide: SASFSPNFTQVTSTLLNS
# T2: human MS4A6A ECL2 peptide (amino acid residues 138-185) (human)
# T2 peptide: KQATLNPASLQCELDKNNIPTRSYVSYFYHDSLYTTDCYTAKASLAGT
# T3: human MS4A4A ECL1 peptide (amino acid residues 86-98) (human)
# T3 construct: synthetic peptide
# T3 peptide: CMASNTYGSNPIS
# T4: BSA-conjugated human MS4A4A ECL2 peptide (amino acid residues 159-179) (human, conjugated to BSA (site not stated))
# T4 construct: also called MS4A4A-ECL2 BSA conjugated peptide; BSA-MS4A4A-ELC2 peptide
# T4 peptide: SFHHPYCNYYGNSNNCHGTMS
# B1: anti-MS4A4A antibody 4A-20 (antibody, V domains shown)
# VH: EVQLQQSGPELVKPGASVKIPCKASGYTFTDYNMDWVKQSHGKSLDWIGDINPNNGYTIYNQKFKGKATLTVDKSSSTAYMELRRLTSEDTAVYYCARSTGPYFDYWGQGTTLTVSS
# VL: DIQMTQSPASLSASVGETVTITCRASENIYSYLAWYQQKQGKSPQFLVYNGKTLAEGVPSRFSGCGSGTQFSLKINSLQPEDFGSYYCQHHYGIPRTFGGGTKLEIK
# notes: murine hybridoma antibody
# B2: anti-MS4A4A antibody 4A-4 (antibody, V domains shown)
# VH: EIQLQQTGPDLVKPGTSVKISCKASGYSFTDYVLVWVKQSHGKSLEWIGNINPYYGNSDYNLKFEGKARLTVDRSSSTAYMQLNSLTSEDSAVYYCARYGLYAMDFWGQGTSVTVSS
# VL: DVLMTQTPLSLPVSLGDQASISCRSSQTIVHSNGNSYLEWYLQKPGQSPKLLIYKVSNRFSGVPDRFSGSGSGTVFTLKISRVEAEDLGVYFCFQSSHVPLTFGVGTKLELK
# notes: murine hybridoma antibody
# B3: anti-MS4A4A antibody 4A-15 (antibody, V domains shown)
# VH: EIQLQQTGPDLVKPGASVKISCKASGYSFTDYVILWVKQSHGKTLEWIGHINPYYANSDYNVNFRGKATLTVDKSSSTAHMQLNSLTSEDSAVYYCVRYGSGMDYWGQGTSVTVSS
# VL: B2 VL with T28S, N33D, S36T, V75D, F92Y, S96G, V99F, V105A
# notes: murine hybridoma antibody
# B4: anti-MS4A4A antibody 4A-8 (antibody, V domains shown)
# VH: EVKLVESGGGLVQPGGSLKLSCATSGFTFSDYYMYWVRQTPEKRLEWVAYINNGGGSTYYPDTVKGRFTISRDNAKNTLYLQMSRLKSEDTAMYYCARQGNLIYYSGSSLFAYWGQGTMVTVSS
# VL: B2 VL with T28S, G34R, S36T, L42V, V75D, F92Y, S96G, L101W, V105G, L111I
# notes: murine hybridoma antibody
# B5: anti-MS4A4A antibody 4A-7 (antibody, V domains shown)
# VH: EIQLQQTGPELVKPGASVKISCKASGYSFTDYVMIWVKQSHGKSLEWIGNINPYYGSTSYNLKFKGKATLTVDKSSSTAYMQLKSLTSEDSAVYYCARYGYDALDNWGQGTSVTVSS
# VL: B2 VL with M4L, T28S, S36T, E39D, Y41S, K55R, V75D, F92Y, S96G, V105A
# notes: murine hybridoma antibody
# B6: anti-MS4A4A antibody 4A-9 (antibody, V domains shown)
# VH: DVQLQESGPGLVKPSQSLSLTCSVTGYSITSGYYWNWIRQFPGNKLEWMGYISYDGNNKYNPSLKNRISITRDTSKNQFFLKLNSVTTEDTATYYCANRDYWGQGTTLTVSS
# VL: DVLMTQTPLSLPVSLGDQASISCRSSQNIVHSNGITYLEWFLQKPGQSPTLLIYKISNRFSGVPDRFSGSGSGTDFTLKISRVEAEDLGVYYCFQGSHVPYTFGGGTKLDIK
# notes: murine hybridoma antibody
# B7: anti-MS4A4A antibody 4A-2 (antibody, V domains shown)
# VH: QIQLVQSGPELKKPGETVKISCKASGYTFVDYEMNWVKQAPGKGLEWLGWINTYTGEPTYADDFQGRFAFSLVTSVSTAYLQINNLKHEDMATYLCTRNYYYGNGDVMDYWGQGTSVTVSS
# VL: QIVLTQSPAIMSASPGEKVTITCSASSSVSYIHWFQQKPGTSPKLWIYSTSNLASGVPARFSGSGSGTSYSLTISRMEAEDAATYYCQQRTGFPLTFGGGTQLEIK
# notes: murine hybridoma antibody
# B8: anti-MS4A4A antibody 4A-3 (antibody, V domains shown)
# VH: QIQLVQSGPELKTPGETVKISCKSSGYTFTKYGMNWVKQAPGKGLKWMAWINTYTAEPTYGDDFKGRFALSLETSANTAYLQINNLKNEDTATYFCARSAELVRHYYALDYWGQGTSVTVSS
# VL: DVLMTQTPLSLPVSLGDQASISCRSSQSLVHSNGNIYLEWFLQKPGQSLKILIYKVSNRFSGVPDRFSGSGSGTDFTLKISRVEADDLGVYYCSQGSHVPPTFGAGTKLELR
# notes: murine hybridoma antibody
# B9: anti-MS4A4A antibody 4A-19 (antibody, V domains shown)
# VH: QVQLQQSGAELARPGASVKLSCKASGYSFIDYGISWVKQRTGQGLEWIGEIYPRSGNTYYNEKFKGKATLTADKSSSTAYMELRSLTSEDSAVYFCARKGLLRDFDYWGQGTTLTVSS
# VL: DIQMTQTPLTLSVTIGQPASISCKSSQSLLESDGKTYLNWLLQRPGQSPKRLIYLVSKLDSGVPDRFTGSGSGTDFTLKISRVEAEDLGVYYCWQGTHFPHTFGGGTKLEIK
# notes: murine hybridoma antibody
# B10: anti-MS4A4A antibody 4A-10 (antibody, V domains shown)
# VH: EVKLEESGGGLVQPGGSMKLSCAASGFTFSDAWMDWVRQSPEKGLEWVAEIRSKANDHATYYAESVKGRFTISRDDSKSSVYLQMNSLRAEDTGIYYCSVDYYGFFWGQGTLVTVSA
# VL: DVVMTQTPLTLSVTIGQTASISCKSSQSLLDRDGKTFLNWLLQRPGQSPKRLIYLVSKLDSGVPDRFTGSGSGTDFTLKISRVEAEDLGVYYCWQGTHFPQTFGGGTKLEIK
# notes: murine hybridoma antibody
# B11: anti-MS4A4A antibody 4A-13 (antibody, V domains shown)
# VH: B10 VH
# VL: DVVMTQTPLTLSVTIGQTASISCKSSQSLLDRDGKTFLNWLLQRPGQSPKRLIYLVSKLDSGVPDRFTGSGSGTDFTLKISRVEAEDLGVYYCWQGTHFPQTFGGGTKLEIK
# notes: murine hybridoma antibody; same VH and VL entries as 4A-10
# B12: anti-MS4A4A antibody 4A-16 (antibody, V domains shown)
# VH: B10 VH with L112M
# VL: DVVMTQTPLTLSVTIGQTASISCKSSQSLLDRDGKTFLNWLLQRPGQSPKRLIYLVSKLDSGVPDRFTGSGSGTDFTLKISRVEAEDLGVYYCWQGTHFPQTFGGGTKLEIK
# notes: murine hybridoma antibody
# B13: anti-MS4A4A antibody 4A-11 (antibody, V domains shown)
# VH: EVKLEESGGGLVQPGGSMKLSCAASGFTFSDAWMDWVRQSPEKGLEWVAEIRSKTDNHATYFAESVKGRFTISRDDSKSSVYLQMNSLRAGDTGIYYCYGSTFASWGQGTLVTVSS
# VL: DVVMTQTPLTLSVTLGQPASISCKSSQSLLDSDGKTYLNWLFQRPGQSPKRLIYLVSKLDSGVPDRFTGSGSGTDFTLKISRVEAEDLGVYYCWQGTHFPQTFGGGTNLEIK
# notes: murine hybridoma antibody
# Biological target: T1, human MS4A6A ECL1 peptide (amino acid …)
# Experiment: array SPR
# Protocol: (§1) Binding kinetic characterization of the anti-MS4A4A antibodies to MS4A4A ECL1 and ECL2 and to MS4A6A ECL1 and ECL2 peptides was performed by Carterra (South San Francisco, Calif.) using a proprietary array Surface Plasmon Resonance (SPR) instrument (MX-96) as follows. Antibodies were captured onto a CMD500D chip (Xantec # SPMX CMD500D) using the Continous Flow Microspotter (CFM). First, the chip was activated with 100 mM MES pH 5.5, 100 μL EDC (133 mM final), 100 μL of S-NHS (33.3 mM final), for 7 minutes. […] Anti-MS4A4A hydridoma supernatant or purified anti-MS4A4A antibodies were diluted in HBS-EP+ buffer (Teknova Cat # H8022) and then printed as duplicates with a 20 minute and a 5-minute print from the same sample solution.
# (§2) These were then injected on the chip for five minutes, followed by a seven-minute dissociation period at 8 uL per second in a non-regenerative kinetic series. Duplicate measurements for each anti-MS4A4A antibody were taken to ensure reproducibility. Association rates (Kon) and dissociation rates (Koff) were calculated using a single one-to-one Langmuir binding model. The equilibrium dissociation constant (KD) was calculated as the ration of Koff/Kon.
row,Binder,binding result
1,B1,no binding (tested: 2000 nM)
2,B2,no binding (tested: 2000 nM)
3,B3,no binding (tested: 2000 nM)
4,B4,no binding (tested: 2000 nM)
5,B5,no binding (tested: 2000 nM)
6,B6,no binding (tested: 2000 nM)
7,B7,no binding (tested: 2000 nM)
8,B8,no binding (tested: 2000 nM)
9,B9,no binding (tested: 2000 nM)
10,B10,no binding (tested: 2000 nM)
11,B11,no binding (tested: 2000 nM)
12,B12,no binding (tested: 2000 nM)
13,B13,no binding (tested: 2000 nM)

# Biological target: T2, human MS4A6A ECL2 peptide (amino acid …)
# Experiment: array SPR
# Protocol: as §1, §2
row,Binder,binding result
1,B1,no binding (tested: 2000 nM)
2,B2,no binding (tested: 2000 nM)
3,B3,no binding (tested: 2000 nM)
4,B4,no binding (tested: 2000 nM)
5,B5,no binding (tested: 2000 nM)
6,B6,no binding (tested: 2000 nM)
7,B7,no binding (tested: 2000 nM)
8,B8,no binding (tested: 2000 nM)
9,B9,no binding (tested: 2000 nM)
10,B10,no binding (tested: 2000 nM)
11,B11,no binding (tested: 2000 nM)
12,B12,no binding (tested: 2000 nM)
13,B13,no binding (tested: 2000 nM)

# Biological target: T3, human MS4A4A ECL1 peptide (amino acid …)
# Experiment: ELISA, hybridoma supernatant
# Protocol: (§3) Briefly, 96-well polystyrene plates were coated with 1-10 μg/ml of synthetic free or BSA-conjugated peptides in coating buffer (0.05M carbonate buffer, pH9.6, Millipore Sigma C3041) overnight at 4° C. Coated plates were then blocked with ELISA diluent (PBS+0.5% BSA+0.05% Tween20) for 1-hour, washed 3×300 μL in PBST (PBS+0.05% Tween20, Thermo Cat#28352), and then the antibodies were added to the plate ([…]). After 30 mins incubation (room temperature, with shaking), the plates were washed 3×300 μL in PBST. […] After a final set of washes (3×300 μL in PBST), 50 μL of TMB substrate (BioFx TMBW-1000-01) was added and the reaction was then quenched after 5-10 mins with 50 μL of stop solution (BioFx BSTP-1000-01). The quenched reaction wells were detected for absorbance at 650 nm with a BioTek Synergy Microplate Reader using GENS 2.04 software.
row,Binder,binding result
1,B1,no binding
2,B2,no binding
3,B3,no binding
4,B4,no binding
5,B5,no binding
6,B6,no binding
7,B7,no binding
8,B8,no binding
9,B9,no binding
10,B10,no binding
11,B11,no binding
12,B12,no binding
13,B13,no binding

# Biological target: T5, cynomolgus (cyno) MS4A4A (cynomolgus)
# T5 construct: also called cy4A; Cyno 4A
# Experiment: FACS, HEK293, supernatant
# Protocol: (§4) Positive clones identified above were expanded and then rescreened for specificity against HEK293 cells overexpressing human MS4A4A or cyno MS4A4A and parental HEK293 cells. These experiments were performed using supernatants from hybridoma clones which had undergone further expansion after initial selection. Briefly, previously prepared, cryopreserved transiently-transfected cells were labeled with LIVE/DEAD Fixable Aqua Dead Cell Stain Kit (ThermoFisher Scientific L34957) on ice for 30 minutes. After a wash with PBS, 2×10⁵ cells were aliquoted per well in 96-well U-bottom plates and incubated with 50 μl of culture supernatant on ice for 30 minutes. […] Following this secondary incubation, the cells were again washed twice with ice-cold FACS buffer and resuspended in a final volume of 200 μl of FACS buffer. Analysis was performed on a FACS Canto system (BD Biosciences), with sort gates drawn to exclude dead (Aqua-positive) cells. Positive clones (fold change of 1.8 or greater) were carried forward for further testing.
row,Binder,Cyno 4A:parental cell ratio
1,B2,2 ratio
2,B3,4.67 ratio
3,B4,3.3 ratio
4,B5,3.98 ratio
5,B6,3.46 ratio
6,B7,9.63 ratio
7,B8,2.58 ratio
8,B9,1.51 ratio
9,B10,2.33 ratio
10,B11,9.94 ratio
11,B12,2.65 ratio
12,B13,2.11 ratio

# Biological target: human MS4A4A (human, UniProt Q96JQ5 1-239)
# Experiment: FACS, HEK293, supernatant
# Protocol: as §4
row,Binder,Human 4A:parental cell ratio
1,B2,4.78 ratio
2,B3,8.13 ratio
3,B4,5.7 ratio
4,B5,7.97 ratio
5,B6,8.2 ratio
6,B7,20.2 ratio
7,B8,7.31 ratio
8,B9,1.86 ratio
9,B10,6.55 ratio
10,B11,43.8 ratio
11,B12,5.93 ratio
12,B13,9.12 ratio

# Biological target: T4, BSA-conjugated human MS4A4A ECL2 …
# Experiment: ELISA, supernatant
# Protocol: as §3
row,Binder,binding result
1,B1,binds
2,B2,binds
3,B3,binds
4,B4,binds
5,B5,binds
6,B6,binds
7,B7,binds
8,B8,binds
9,B9,binds
10,B12,binds
11,B13,binds
